The target of the assay is MUC4 protein (endogenous human MUC4 of pancreatic cancer cells and tumor tissue) (human) (UniProt Q99102). Put plainly: flow cytometry, cell-surface staining of paraformaldehyde-fixed unpermeabilized cells (cell line not given), 1 µg antibody/10^6 cells, FITC anti-mouse secondary. (In general: In flow cytometry, cells or beads pass a laser one at a time.)

Our source for the MFI (mean fluorescence intensity) values is patent publication US20140199242A1.

As for anti-MUC4 TR MAb 8G7 (antibody), the MFI (mean fluorescence intensity) was found to be 23.1. Under anti-KLH antibody K2G6 stands 14.2.
